Measured values: PMC4358337, “How lamina-associated polypeptide 1 (LAP1) activates Torsin” (eLife, 2014)

T1: human TorsinA(E171Q) (aa51-322) (human, UniProt O14656 51-322, E171Q)
T1 construct: human TorsinA, aa51-322 as printed; Captured by its tag on nickel resin; the nickel eluate was used directly for electron microscopy; Whether the tag was removed before the analytical gel filtration and the precipitation assay is not clearly told; not shown: 6xHis-7xArg, N-terminal, kept
T1 sequence (looked up): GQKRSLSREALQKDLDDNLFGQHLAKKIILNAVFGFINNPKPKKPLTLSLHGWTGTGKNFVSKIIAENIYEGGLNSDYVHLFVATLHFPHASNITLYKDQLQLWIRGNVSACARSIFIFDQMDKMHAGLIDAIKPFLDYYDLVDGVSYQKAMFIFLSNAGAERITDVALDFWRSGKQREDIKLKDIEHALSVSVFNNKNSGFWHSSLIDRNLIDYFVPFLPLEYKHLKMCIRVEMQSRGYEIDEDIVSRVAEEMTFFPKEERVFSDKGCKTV

B1: luminal domain of human LAP1 (aa356-583), untagged, co-expressed with TorsinA (domain or fragment)
chain: not shown
notes: luminal domain of human lamina-associated polypeptide 1 (LAP1), aa356-583, untagged; From a second, kanamycin resistant modified pETDuet-1 vector; also called LAP1(356-583)
B2: VHH-BS1 (VHH)
VHH: QVQLVESGGGLVQAGGSLRLSCAASGRTLSSYAVGWFRQAPGLEREFVATISRSGGSTHYADSVKGRFTISRDNAKNTVYLQMNSLKPEDTAVYYCAATFTPDGSWYYTRGSSYDYWGQGTQVTVSS
notes: alpaca VHH selected by phage display against LAP1; Raised by immunising an alpaca with recombinant LAP1; expressed from pET-28b(+); also called camelid single domain (VHH) antibody fragment against LAP1
B3: luminal domain of human LULL1 (aa233-470), untagged, co-expressed with TorsinA (domain or fragment)
chain: not shown
notes: luminal domain of human LULL1, aa233-470, untagged; The results once print LULL1(322-570); the methods print aa233-470 throughout; also called LULL1(233-470); Luminal domain-Like LAP1

How the values were obtained:
Details in all cases: both partners purified
[1] = target: T1, human TorsinA(E171Q) (aa51-322); assay: SEC; analytical gel filtration of the co-purified complexes, Superdex 200 10/300, 10 mM HEPES/NaOH pH 8.0, 150 mM NaCl, 10 mM MgCl2, 0.5 mM ATP; peak fractions by SDS-PAGE
[2] = target: T2, luminal domain of human LAP1 (aa356-583), untagged, co-expressed with TorsinA (human, UniProt Q5JTV8); assay: in vitro precipitation assay (competition); 100 pmol preformed TorsinA(E171Q):LAP1 complex with 200 pmol VHH, 4°C, 10 mM HEPES/NaOH pH 8.0, 150 mM NaCl, 10 mM MgCl2, 0.25 mM ATP; soluble and insoluble protein separated by centrifugation, SDS-PAGE
T2 construct: luminal domain of human lamina-associated polypeptide 1 (LAP1), aa356-583, untagged; From a second, kanamycin resistant modified pETDuet-1 vector; also called LAP1(356-583)
T2 sequence (Q5JTV8 356-583): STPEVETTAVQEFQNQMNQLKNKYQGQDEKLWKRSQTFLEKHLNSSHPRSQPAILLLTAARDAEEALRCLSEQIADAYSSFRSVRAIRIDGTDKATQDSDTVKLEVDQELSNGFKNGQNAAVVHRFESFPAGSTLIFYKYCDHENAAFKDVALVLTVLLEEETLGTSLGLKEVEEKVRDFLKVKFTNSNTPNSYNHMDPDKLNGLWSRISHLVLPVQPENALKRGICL

[3] = target: T3, luminal domain of human LAP1 (aa356-583) (human, UniProt Q5JTV8); assay: crystal structure; LAP1-VHH-BS1 complex formed with twofold molar excess of VHH-BS1, SEC purified; crystals in 20% PEG 3350, 100 mM Bis-Tris pH 5.5, 200 mM ammonium sulfate, 18°C; 1.6 Å
T3 construct: luminal domain of human lamina-associated polypeptide 1 (LAP1), aa356-583; Tag removed with human rhinovirus 3C protease; disulfide bond C424-C582 seen in the structure; also called LAP1(356-583); Lamina-associated polypeptide 1; not shown: 6xHis-7xArg, N-terminal, cleaved
T3 sequence (Q5JTV8 356-583): as above

| Binder | stoichiometry N [1] | binding result [2] | binding result [3] |
| --- | --- | --- | --- |
| B1 | 1 | – | – |
| B2 | – | binds | binds |
| B3 | 1 | – | – |
